Results reported in PMC5686067.
Changes are numbered by the printed parent chain. In names and notes the source's numbering stands.

Tests used:
[1] = biological target: T1, sMepS-6×His-C (soluble MepS without its lipoprotein signal peptide, C-terminal His-tag), P0AFV4; assay: ITC; conditions: chain shown with the change
T1 chain: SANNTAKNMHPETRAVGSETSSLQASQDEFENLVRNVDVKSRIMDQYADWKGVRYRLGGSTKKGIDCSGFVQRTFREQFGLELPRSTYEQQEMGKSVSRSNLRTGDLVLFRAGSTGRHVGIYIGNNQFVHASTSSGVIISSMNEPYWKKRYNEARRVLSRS

[2] = biological target: Prc (full-length, C-terminal His-tag) (E. coli) (UniProt P23865)
[3] = biological target: Prc (full-length, C-terminal His-tag) (E. coli) (UniProt P23865); assay: ITC; iTC200, 20 °C, 20 mM HEPES pH 7.5, 300 mM NaCl, 2 mM 2-mercaptoethanol; 23 µM sMepS or Prc in the cell, 230 µM sNlpI (alone or with equimolar Prc) in the syringe; one binding site model
[4] = biological target: sMepS-6×His-C (soluble MepS without its lipoprotein signal peptide, C-terminal His-tag) (E. coli) (UniProt P0AFV4); assay: as above

Sequence of Prc (full-length, C-terminal His-tag) (E. coli) (P23865 23-682 limits assumed): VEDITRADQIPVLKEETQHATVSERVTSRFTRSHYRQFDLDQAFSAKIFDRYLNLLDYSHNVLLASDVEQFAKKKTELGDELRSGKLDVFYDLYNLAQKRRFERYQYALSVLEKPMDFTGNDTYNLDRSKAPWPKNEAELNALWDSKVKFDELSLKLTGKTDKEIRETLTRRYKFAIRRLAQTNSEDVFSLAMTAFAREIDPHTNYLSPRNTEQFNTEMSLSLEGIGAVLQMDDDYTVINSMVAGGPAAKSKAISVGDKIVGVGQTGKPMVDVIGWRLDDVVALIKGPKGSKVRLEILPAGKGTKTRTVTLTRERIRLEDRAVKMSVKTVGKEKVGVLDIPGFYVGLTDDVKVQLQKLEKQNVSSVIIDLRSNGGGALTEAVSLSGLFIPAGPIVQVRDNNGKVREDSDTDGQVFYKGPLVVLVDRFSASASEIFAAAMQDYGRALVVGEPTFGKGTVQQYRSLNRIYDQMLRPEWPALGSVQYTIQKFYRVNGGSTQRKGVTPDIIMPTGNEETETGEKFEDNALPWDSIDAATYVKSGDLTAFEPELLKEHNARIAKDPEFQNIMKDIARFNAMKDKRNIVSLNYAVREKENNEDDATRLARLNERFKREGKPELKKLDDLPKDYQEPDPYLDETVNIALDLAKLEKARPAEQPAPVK

B1: sNlpI (soluble NlpI without its lipoprotein signal peptide), P0AFB1 A114W (protein)
chain: SNTSWRKSEVLAVPLQPTLQQEVILARMEQILASRALTDDERAQLLYERGVLYDSLGLRALARNDFSQALAIRPDMPEVFNYLGIYLTQAGNFDWAYEAFDSVLELDPTYNYAHLNRGIALYYGGRDKLAQDDLLAFYQDDPNDPFRSLWLYLAEQKLDEKQAKEVLKQHFEKSDKEQWGWNIVEFYLGNISEQTLMERLKADATDNTSLAEHLSETNFYLGKYYLSLGDLDSATALFKLAVANNVHNFVEHRYALLELSLLGQDQDDLAESDQQ
B1 showed a Kd [1] of 1450 nM.

B2: sNlpI (soluble NlpI without its lipoprotein signal peptide) (natural protein)
chain: B1 chain with W95A
In the case of B2, the melting temperature (T m) of Prc-sNlpI in thermal shift assay (Prc alone 40.1 °C) [2] is reported as 53.6 °C, the Kd [3] is reported as < 10 nM and the Kd [4] is reported as 750 nM.
